Experimental data: the supplement of paper PMC12764529
± gives the half width of the 95% confidence interval.

Experiments:
[1] = folding stability dG unfold from chymotrypsin proteolysis; higher = more stable
How it was run: (§1)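 Digests were run with trypsin and chymotrypsin at 11 concentrations in threefold dilutions, plus a no-protease condition, on designed mini-proteins in a PA-tagged cDNA display construct. The mini-proteins were under 80 residues, had no cysteine, and were kept only when AlphaFold2 dimer inter-PAE was above 15. After sequencing, Bayesian fitting of the counts gave K50, from which unfolding free energy was derived against a sequence-predicted unfolded-state K50 and a shared folded-state K50, per protease or combined.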

[2] = folding stability dG unfold from trypsin proteolysis; higher = more stable
How it was run: as §1

[3] = folding stability dG unfold (combined trypsin and chymotrypsin); higher = more stable
How it was run: as §1

Sequence | folding stability dG unfold [1] | folding stability dG unfold [2] | folding stability dG unfold [3]
SPDIEIEPMPNGSYMIEVPVPPDAESIEVPFPGNGRPVTIHRDPDKIHIFFNNPEQIEEIAEAIADGKPISA [r9_515_TrROS] | 0.2 ± 0.21 kcal/mol | 0.0692 ± 0.047 kcal/mol | 0.15 ± 0.15 kcal/mol
SAMMVVYYDPETGELVLVDPSEIPPELVEKGIEPVRLVPLRILVEVESEEEAEELARLFPDLVEVSLNPSAG [r14_638_TrMRF] | 1.83 ± 0.032 kcal/mol | 1.97 ± 0.045 kcal/mol | 1.88 ± 0.098 kcal/mol
SAGGSMIPRLEERVLEVEVDSEEEAEKLKKELKEKIEKEHPGVEVKFELRKLPNGKYLLTITVVIPILSAGG [r13_17_JUSTAS] | 3.93 ± 0.041 kcal/mol | 2.89 ± 0.058 kcal/mol | 3.64 ± 0.077 kcal/mol
SAMKLVTLEDGTVIETENLSLEEIKERFGGGSISVSDVPPSPAFRVESEEEREALEKEVGPGFVVVEEGSAG [r14_445_JUSTAS] | 0.108 ± 0.11 kcal/mol | 0.578 ± 0.032 kcal/mol | 0.414 ± 0.082 kcal/mol
SAGGSAGGSPANIKITTTLDTETGYLTIVAYNPATGKVTVLTAKIYGNVPHIDGLEALFGALGSAGGSAGGS [r20_131_TrMRF] | 3.02 ± 0.078 kcal/mol | 2.07 ± 0.086 kcal/mol | 2.7 ± 0.18 kcal/mol
SAGGSMVEVIVIDKDGKEHKILIPPELKPEEVAEKVKKFLEDEGYEVESIEIEELPEGFSKVIVNASAGGSA [r2_148_TrMRF] | 1.45 ± 0.18 kcal/mol | 2.05 ± 0.078 kcal/mol | 1.68 ± 0.21 kcal/mol
SAVVSVDPATGVVTAKVKVDDTELTVTITRDPATGAWPVTFTPPGSGTPVVLDVPFTSVEEAIELAKRLSAG [r14_803_JUSTAS] | 1.56 ± 0.036 kcal/mol | 1.54 ± 0.02 kcal/mol | 1.59 ± 0.05 kcal/mol
SAGGSAGGSPRVLEIRRYPLPDGGYLLEVRFEKETLFIPVPENVPPHSLEEIEIPLLLGEKPESAGGSAGGS [r12_673_TrMRF] | 1.6 ± 0.027 kcal/mol | 1.49 ± 0.022 kcal/mol | 1.6 ± 0.044 kcal/mol
SAGGSMIFETLGSEKLIKEKAEERGLDLVEYSVEGNKFFALLKDPAGKLVLTYSDEASVKKLGLDLSKLSAG [r5_12_JUSTAS] | 0.523 ± 0.08 kcal/mol | -0.265 ± 0.095 kcal/mol | 0.299 ± 0.081 kcal/mol
SMLPLLPPRRLLIEVVFPLPEDATPEQLELAERAAEALADVLEALGFKDVRVLVEPTDPGDVLILAEVEASA [r9_865_TrMRF] | 1.97 ± 0.034 kcal/mol | 1.49 ± 0.023 kcal/mol | 1.82 ± 0.074 kcal/mol
SAGGSAGMTITSATEVGTTTFNGGSITHYTLTTPSGKTITGEVDPATGTLTISFPETGLSITIPPKSAGGSA [r15_159_JUSTAS] | 0.729 ± 0.19 kcal/mol | 1.09 ± 0.023 kcal/mol | 1 ± 0.1 kcal/mol
SAGGLGTDSTVPTLTLSVPVLVPTADGSPRELTVRVTIRAPVRLNPPTGELEIGDVEVSVEVFDPSLLSAGG [r13_312_TrMRF] | 3.73 ± 0.11 kcal/mol | 3.03 ± 0.11 kcal/mol | 3.37 ± 0.13 kcal/mol
SAGGMKPGEIVEKITIEIEINGKKYKIEMTFYKDNGIIEIKIYNKNGKLIKTFKFYIDPKTKKIILLSAGGS [r16_798_TrROS_Hall] | 3.81 ± 0.098 kcal/mol | 3.66 ± 0.14 kcal/mol | 3.68 ± 0.34 kcal/mol
SAGGSAGGMVKVLVNPDGGATFIFNKDGSTSTIPVPYTTLEDVKAAVEALAKEYGIEVEEIVPASAGGSAGG [r6_254_JUSTAS] | 1.38 ± 0.12 kcal/mol | 0.395 ± 0.085 kcal/mol | 0.982 ± 0.15 kcal/mol
SAGGSAGGSANVKLKIDLDPGYGYIKIKLEWEDPGTGNKQEMEITIPIPIPPPPPPPANDKKSAGGSAGGSA [r18_361_TrROS] | 2.17 ± 0.11 kcal/mol | 1.12 ± 0.11 kcal/mol | 1.93 ± 0.43 kcal/mol
SAGGSMTFKAEVTPLDTFPLFDANGKPVAEVKVYTATIEFPDGSRVEIRGVEVGDELYILEIRPLDSAGGSA [r2_158_TrMRF] | 2.32 ± 0.13 kcal/mol | 1.54 ± 0.084 kcal/mol | 2.16 ± 0.13 kcal/mol
SAGGSAGGGDEVKTFKAKVKLVSVDPETGEQLVLAEVPDGKPILVKVPKSFPLKEDEIVEFELSSAGGSAGG [r6_68_TrMRF] | 1.31 ± 0.036 kcal/mol | 1.16 ± 0.027 kcal/mol | 1.3 ± 0.059 kcal/mol
SAGGSAGGIIVWFPFDDIDELIKNGNIDEVEISRDPNDWFRFTPEIRPPPPPPPEQLAKNNKKNSAGGSAGG [r6_279_TrROS] | 0.493 ± 0.11 kcal/mol | 1.03 ± 0.16 kcal/mol | 0.735 ± 0.22 kcal/mol
SAGGSAGGSAGMVYITKGKDGIWYEAEVDPTKPGAKVKVRHPLTGKEEEITPAEVVAVPPSAGGSAGGSAGG [r11_822_TrMRF] | -0.546 ± 0.6 kcal/mol | 0.141 ± 0.15 kcal/mol | 0.155 ± 0.42 kcal/mol
SAGGSAGGSMELVIPKEEVEKMSEEVVKKIKELAKKANISISETEDSLVIPIKKVSEKVIKELSAGGSAGGS [r12_945_JUSTAS] | 0.497 ± 0.045 kcal/mol | -0.325 ± 0.075 kcal/mol | 0.232 ± 0.1 kcal/mol
SAGGMVIVFPAPKDISPDELRELIEAEVGPLAEELGLTEASIPIAKVEELPEGSRRVVAVIELRFDGSAGGS [r8_184_TrMRF] | 0.332 ± 0.048 kcal/mol | 0.977 ± 0.027 kcal/mol | 0.718 ± 0.056 kcal/mol
